{"source": "paper PMC6978450", "origin": "cited, not measured here", "key": {"IL-13Rα1 (Mus musculus)": {"target": "IL-13Rα1 (Mus musculus) (UniProt O09030)", "sequence (O09030 26-340)": "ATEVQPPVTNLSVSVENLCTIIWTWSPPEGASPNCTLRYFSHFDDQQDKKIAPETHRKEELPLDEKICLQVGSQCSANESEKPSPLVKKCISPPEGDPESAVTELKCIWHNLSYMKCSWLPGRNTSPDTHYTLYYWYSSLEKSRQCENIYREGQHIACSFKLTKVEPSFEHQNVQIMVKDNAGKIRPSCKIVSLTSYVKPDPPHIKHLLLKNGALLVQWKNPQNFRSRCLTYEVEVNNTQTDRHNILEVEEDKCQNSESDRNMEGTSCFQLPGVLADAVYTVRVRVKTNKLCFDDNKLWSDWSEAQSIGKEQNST"}, "IL-13Rα2 (Mus musculus)": {"target": "IL-13Rα2 (Mus musculus) (UniProt O88786)", "sequence (O88786 22-334)": "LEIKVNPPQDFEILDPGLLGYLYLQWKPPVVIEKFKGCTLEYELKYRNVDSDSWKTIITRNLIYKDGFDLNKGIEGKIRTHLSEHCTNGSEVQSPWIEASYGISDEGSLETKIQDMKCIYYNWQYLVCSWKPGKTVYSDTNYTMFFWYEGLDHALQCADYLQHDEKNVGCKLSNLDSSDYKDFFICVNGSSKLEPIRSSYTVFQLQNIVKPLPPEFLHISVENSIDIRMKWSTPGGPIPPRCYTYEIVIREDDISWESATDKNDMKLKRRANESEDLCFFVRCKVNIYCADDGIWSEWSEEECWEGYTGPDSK"}}, "data": [{"substance": "IL-13 (from UniProt P20109)", "values": [{"measurement": "Kd", "setting": "IL-13Rα1 (Mus musculus)", "result": 30, "unit": "nM"}, {"measurement": "Kd", "setting": "IL-13Rα2 (Mus musculus)", "result": 0.44, "unit": "nM"}]}]}
